Values quoted from earlier work in publication PMC8297464.
pKd: −log10 of the molar value.

Columns and labels:
[1] = target: Spike RBD RBD (SARS-CoV-2) (UniProt P0DTC2)
[2] = target: ACE2 (Homo sapiens) (UniProt Q9BYF1)

Sequence of Human defensin 5 (Q01523 63-94): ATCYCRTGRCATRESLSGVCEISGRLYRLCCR

Substance	pKd [1]	pKd [2]
SBP1 α1 helix 23-mer (from UniProt Q9BYF1)	7.33	–
Human defensin 5 (from UniProt Q01523)	–	7.41
